{"source": "paper PMC5916898", "about": "“Global profiling of protein–DNA and protein–nucleosome binding affinities using quantitative mass spectrometry”", "key": {"[1]": {"target": "TFAP2A (Homo sapiens, UniProt P05549)", "sequence (P05549 whole entry)": "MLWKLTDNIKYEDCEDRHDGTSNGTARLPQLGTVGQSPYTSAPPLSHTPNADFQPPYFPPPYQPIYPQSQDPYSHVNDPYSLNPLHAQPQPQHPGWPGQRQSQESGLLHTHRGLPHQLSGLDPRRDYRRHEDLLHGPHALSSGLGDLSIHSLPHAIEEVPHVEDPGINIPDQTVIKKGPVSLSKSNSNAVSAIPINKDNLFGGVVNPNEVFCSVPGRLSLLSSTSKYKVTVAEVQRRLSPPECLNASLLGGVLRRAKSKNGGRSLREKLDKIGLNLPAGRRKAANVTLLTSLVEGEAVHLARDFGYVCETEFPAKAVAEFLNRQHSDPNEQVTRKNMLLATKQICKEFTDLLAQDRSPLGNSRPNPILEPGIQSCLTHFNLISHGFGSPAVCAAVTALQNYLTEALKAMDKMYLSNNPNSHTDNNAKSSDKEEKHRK", "assay": "competition; 150 mM NaCl, 50 mM Tris pH 8, 0.25% NP-40, 1 mM TCEP; 4 C, 2 h; 100 ug HeLa nuclear lysate; free competitor against 200 nM immobilised SP/KLF wild-type", "details": "protein: extract"}, "[2]": {"target": "T1, ZNF148 (Homo sapiens, UniProt Q9UQR1)", "T1 sequence": "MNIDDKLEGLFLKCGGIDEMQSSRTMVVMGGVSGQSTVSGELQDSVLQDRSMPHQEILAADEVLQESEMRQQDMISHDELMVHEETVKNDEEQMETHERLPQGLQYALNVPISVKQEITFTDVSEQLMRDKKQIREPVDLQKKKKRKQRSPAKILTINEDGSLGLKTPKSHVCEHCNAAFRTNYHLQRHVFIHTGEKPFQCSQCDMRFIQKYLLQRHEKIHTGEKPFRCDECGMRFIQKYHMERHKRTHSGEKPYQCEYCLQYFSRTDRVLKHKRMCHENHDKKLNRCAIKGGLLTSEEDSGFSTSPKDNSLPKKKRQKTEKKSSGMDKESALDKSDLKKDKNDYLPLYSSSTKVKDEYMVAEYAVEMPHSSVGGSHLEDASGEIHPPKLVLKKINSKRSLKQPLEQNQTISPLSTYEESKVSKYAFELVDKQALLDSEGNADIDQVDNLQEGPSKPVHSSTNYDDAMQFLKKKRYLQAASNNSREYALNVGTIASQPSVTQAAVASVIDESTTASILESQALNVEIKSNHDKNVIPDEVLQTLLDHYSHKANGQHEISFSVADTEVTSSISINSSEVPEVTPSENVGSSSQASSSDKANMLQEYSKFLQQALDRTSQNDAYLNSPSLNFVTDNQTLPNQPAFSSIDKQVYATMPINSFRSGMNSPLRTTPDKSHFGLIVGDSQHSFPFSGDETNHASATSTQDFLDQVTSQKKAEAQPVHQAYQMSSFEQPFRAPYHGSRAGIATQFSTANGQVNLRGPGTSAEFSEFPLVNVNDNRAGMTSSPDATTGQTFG", "assay": "competition; 150 mM NaCl, 50 mM Tris pH 8, 0.25% NP-40, 1 mM TCEP; 4 C, 2 h; 100 ug HeLa nuclear lysate; free competitor against 200 nM immobilised SP/KLF wild-type", "details": "protein: extract"}}, "data": [{"binder": "SP/KLF wild-type (dsDNA) DNA 1: GAGAGCCCCGCCCCCTGGCT DNA 2: AGCCAGGGGGCGGGGCTCTC", "values": [{"measurement": "IC50", "setting": "[1]", "result": 215, "unit": "nM"}, {"measurement": "IC50", "setting": "[2]", "result": 164, "unit": "nM"}]}]}
